Measurements published in the supplement of paper PMC11246515.
± gives the standard deviation of the averaged measurements.

Assay: total protein half-life in vivo (active degradation + dilution); higher = more stable protein
[1] = E. coli NCM3722 delta-clpP delta-lon delta-hslV, growth: N-lim chemostat, doubling time 6 h
[2] = E. coli NCM3722 delta-clpP, growth: N-lim chemostat, doubling time 6 h
[3] = E. coli NCM3722 delta-hslV, growth: N-lim chemostat, doubling time 6 h
[4] = E. coli NCM3722 delta-lon, growth: N-lim chemostat, doubling time 6 h
[5] = E. coli NCM3722 delta-smpB, growth: N-lim chemostat, doubling time 6 h
[6] = wild type E. coli NCM3722, growth: C-lim chemostat, doubling time 3 h
[7] = wild type E. coli NCM3722, growth: C-lim chemostat, doubling time 6 h
[8] = wild type E. coli NCM3722, growth: C-lim chemostat, doubling time 12 h
[9] = wild type E. coli NCM3722, growth: N-lim chemostat, doubling time 6 h
[10] = wild type E. coli NCM3722, growth: N-lim chemostat, doubling time 12 h
[11] = wild type E. coli NCM3722, growth: P-lim chemostat, doubling time 6 h
[12] = wild type E. coli NCM3722, growth: P-lim chemostat, doubling time 12 h

Sequence	total protein half-life in vivo [1]	total protein half-life in vivo [2]	total protein half-life in vivo [3]	total protein half-life in vivo [4]	total protein half-life in vivo [5]	total protein half-life in vivo [6]	total protein half-life in vivo [7]	total protein half-life in vivo [8]	total protein half-life in vivo [9]	total protein half-life in vivo [10]	total protein half-life in vivo [11]	total protein half-life in vivo [12]
MSEPMMWLLVRGVWETLAMTFVSGFFGFVIGLPVGVLLYVTRPGQIIANAKLYRTVSAIVNIFRSIPFIILLVWMIPFTRVIVGTSIGLQAAIVPLTVGAAPFIARMVENALLEIPTGLIEASRAMGATPMQIVRKVLLPEALPGLVNAATITLITLVGYSAMGGAVGAGGLGQIGYQYGYIGYNATVMNTVLVLLVILVYLIQFAGDRIVRAVTRK	6.59 h	6.5 h	6.24 h	5.881 ± 0.054 h	5.76 ± 0.38 h	3.25 ± 0.28 h	6.38 h	11.6 h	6.095 ± 0.06 h	11.6 ± 1.8 h	6.63 ± 0.78 h	
MAKNYYDITLALAGICQSARLVQQLAHQGHCDADALHVSLNSIIDMNPSSTLAVFGGSEANLRVGLETLLGVLNASSRQGLNAELTRYTLSLMVLERKLSSAKGALDTLGNRINGLQRQLEHFDLQSETLMSAMAAIYVDVISPLGPRIQVTGSPAVLQSPQVQAKVRATLLAGIRAAVLWHQVGGGRLQLMFSRNRLTTQAKQILAHLTPEL	6.52 ± 1.1 h	5.78 ± 0.42 h	6.17 ± 0.66 h	5.23 ± 0.89 h	6 ± 0.18 h	3.36 ± 0.65 h	5.87 ± 0.23 h	12.2 ± 2.8 h	5.449 ± 0.017 h	10.6 ± 0.7 h	6.04 ± 0.18 h	13.2 ± 0.51 h
MYYPFVRKALFQLDPERAHEFTFQQLRRITGTPFEALVRQKVPAKPVNCMGLTFKNPLGLAAGLDKDGECIDALGAMGFGSIEIGTVTPRPQPGNDKPRLFRLVDAEGLINRMGFNNLGVDNLVENVKKAHYDGVLGINIGKNKDTPVEQGKDDYLICMEKIYAYAGYIAINISSPNTPGLRTLQYGEALDDLLTAIKNKQNDLQAMHHKYVPIAVKIAPDLSEEELIQVADSLVRHNIDGVIATNTTLDRSLVQGMKNCDQTGGLSGRPLQLKSTEIIRRLSLELNGRLPIIGVGGIDSVIAAREKIAAGASLVQIYSGFIFKGPPLIKEIVTHI [P0A7E1]	6.89 ± 0.98 h	6.3 ± 1.1 h	6.7 ± 0.85 h	6.48 ± 0.29 h	6.46 ± 0.65 h	3.04 ± 0.24 h	5.72 ± 0.16 h	13.1 ± 0.45 h	6.26 ± 0.34 h	12.5 ± 0.72 h	6.03 ± 0.28 h	14.2 ± 1.6 h
MNAWEVNFDGLVGLTHHYAGLSFGNEASTRHRFQVSNPRLAAKQGLLKMKALADAGFPQAVIPPHERPFIPVLRQLGFSGSDEQVLEKVARQAPHWLSSVSSASPMWVANAATIAPSADTLDGKVHLTVANLNNKFHRSLEAPVTESLLKAIFNDEEKFSVHSALPQVALLGDEGAANHNRLGGHYGEPGMQLFVYGREEGNDTRPSRYPARQTREASEAVARLNQVNPQQVIFAQQNPDVIDQGVFHNDVIAVSNRQVLFCHQQAFARQSQLLANLRARVNGFMAIEVPATQVSVSDTVSTYLFNSQLLSRDDGSMMLVLPQECREHAGVWGYLNELLAADNPISELKVFDLRESMANGGGPACLRLRVVLTEEERRAVNPAVMMNDTLFNALNDWVDRYYRDRLTAADLADPQLLREGREALDVLSQLLNLGSVYPFQREGGGNG	4.1 ± 0.25 h	2.42 ± 0.32 h	2.8 ± 0.29 h	2.88 ± 0.035 h	2.75 ± 0.14 h	3.06 ± 0.31 h	5.17 ± 0.51 h	8.64 ± 0.32 h	2.74 ± 0.35 h	3.749 ± 0.0089 h	5.69 ± 0.31 h	9.79 ± 1.5 h
MNKKIHSLALLVNLGIYGVAQAQEPTDTPVSHDDTIVVTAAEQNLQAPGVSTITADEIRKNPVARDVSKIIRTMPGVNLTGNSTSGQRGNNRQIDIRGMGPENTLILIDGKPVSSRNSVRQGWRGERDTRGDTSWVPPEMIERIEVLRGPAAARYGNGAAGGVVNIITKKGSGEWHGSWDAYFNAPEHKEEGATKRTNFSLTGPLGDEFSFRLYGNLDKTQADAWDINQGHQSARAGTYATTLPAGREGVINKDINGVVRWDFAPLQSLELEAGYSRQGNLYAGDTQNTNSDSYTRSKYGDETNRLYRQNYALTWNGGWDNGVTTSNWVQYEHTRNSRIPEGLAGGTEGKFNEKATQDFVDIDLDDVMLHSEVNLPIDFLVNQTLTLGTEWNQQRMKDLSSNTQALTGTNTGGAIDGVSTTDRSPYSKAEIFSLFAENNMELTDSTIVTPGLRFDHHSIVGNNWSPALNISQGLGDDFTLKMGIARAYKAPSLYQTNPNYILYSKGQGCYASAGGCYLQGNDDLKAETSINKEIGLEFKRDGWLAGVTWFRNDYRNKIEAGYVAVGQNAVGTDLYQWDNVPKAVVEGLEGSLNVPVSETVMWTNNITYMLKSENKTTGDRLSIIPEYTLNSTLSWQAREDLSMQTTFTWYGKQQPKKYNYKGQPAVGPETKEISPYSIVGLSATWDVTKNVSLTGGVDNLFDKRLWRAGNAQTTGDLAGANYIAGAGAYTYNEPGRTWYMSVNTHF		5.83 h				3.068 ± 0.0056 h	7.39 ± 0.36 h	14.5 ± 2.1 h	6.97 h		6.6 h	12.3 h
MNINVAELLNGNYILLLFVVLALGLCLGKLRLGSIQLGNSIGVLVVSLLLGQQHFSINTDALNLGFMLFIFCVGVEAGPNFFSIFFRDGKNYLMLALVMVGSALVIALGLGKLFGWDIGLTAGMLAGSMTSTPVLVGAGDTLRHSGMESRQLSLALDNLSLGYALTYLIGLVSLIVGARYLPKLQHQDLQTSAQQIARERGLDTDANRKVYLPVIRAYRVGPELVAWTDGKNLRELGIYRQTGCYIERIRRNGILANPDGDAVLQMGDEIALVGYPDAHARLDPSFRNGKEVFDRDLLDMRIVTEEVVVKNHNAVGKRLAQLKLTDHGCFLNRVIRSQIEMPIDDNVVLNKGDVLQVSGDARRVKTIADRIGFISIHSQVTDLLAFCAFFVIGLMIGMITFQFSTFSFGMGNAAGLLFAGIMLGFMRANHPTFGYIPQGALSMVKEFGLMVFMAGVGLSAGSGINNGLGAIGGQMLIAGLIVSLVPVVICFLFGAYVLRMNRALLFGAMMGARTCAPAMEIISDTARSNIPALGYAGTYAIANVLLTLAGTIIVMVWPGLG	6.56 ± 0.66 h	6.38 ± 1 h			6.19 ± 0.91 h		7.06 ± 0.39 h		6.17 ± 0.47 h		7.316 ± 0.023 h	12 ± 2.5 h
MDFNLNDEQELFVAGIRELMASENWEAYFAECDRDSVYPERFVKALADMGIDSLLIPEEHGGLDAGFVTLAAVWMELGRLGAPTYVLYQLPGGFNTFLREGTQEQIDKIMAFRGTGKQMWNSAITEPGAGSDVGSLKTTYTRRNGKIYLNGSKCFITSSAYTPYIVVMARDGASPDKPVYTEWFVDMSKPGIKVTKLEKLGLRMDSCCEITFDDVELDEKDMFGREGNGFNRVKEEFDHERFLVALTNYGTAMCAFEDAARYANQRVQFGEAIGRFQLIQEKFAHMAIKLNSMKNMLYEAAWKADNGTITSGDAAMCKYFCANAAFEVVDSAMQVLGGVGIAGNHRISRFWRDLRVDRVSGGSDEMQILTLGRAVLKQYR	> 8 h			3.62 ± 0.096 h	2.77 ± 0.42 h	2.46 h	3.58 h	7.41 ± 1.4 h			5.45 ± 0.16 h	11.5 ± 1.7 h
MMSTTLFKDFTFEAAHRLPHVPEGHKCGRLHGHSFMVRLEITGEVDPHTGWIIDFAELKAAFKPTYERLDHHYLNDIPGLENPTSEVLAKWIWDQVKPVVPLLSAVMVKETCTAGCIYRGE	4.72 ± 1 h	6.75 ± 0.54 h	5.07 h	6.5 ± 0.67 h	5.53 ± 0.14 h		6.53 ± 0.12 h	12.7 ± 0.82 h	7.08 h	13.1 ± 1.2 h	6.75 ± 0.27 h	13.2 h
MDHLPIFCQLRDRDCLIVGGGDVAERKARLLLDAGARLTVNALAFIPQFTAWADAGMLTLVEGPFDESLLDTCWLAIAATDDDALNQRVSEAAEARRIFCNVVDAPKAASFIMPSIIDRSPLMVAVSSGGTSPVLARLLREKLESLLPLHLGQVAKYAGQLRGRVKQQFATMGERRRFWEKLFVNDRLAQSLANNDQKAITETTEQLINEPLDHRGEVVLVGAGPGDAGLLTLKGLQQIQQADVVVYDRLVSDDIMNLVRRDADRVFVGKRAGYHCVPQEEINQILLREAQKGKRVVRLKGGDPFIFGRGGEELETLCNAGIPFSVVPGITAASGCSAYSGIPLTHRDYAQSVRLITGHLKTGGELDWENLAAEKQTLVFYMGLNQAATIQQKLIEHGMPGEMPVAIVENGTAVTQRVIDGTLTQLGELAQQMNSPSLIIIGRVVGLRDKLNWFSNH [P0AEA8]	5.19 ± 0.22 h	4.33 ± 0.24 h	4.17 ± 0.56 h	5.23 ± 0.94 h	4.7 ± 0.87 h	3.42 ± 0.48 h	5.47 ± 0.28 h	10.12 ± 0.019 h	4.39 ± 0.22 h	7.57 ± 0.15 h	6.43 ± 1.1 h	13.6 ± 2.6 h
MAEAQNDPLLPGYSFNAHLVAGLTPIEANGYLDFFIDRPLGMKGYILNLTIRGQGVVKNQGREFVCRPGDILLFPPGEIHHYGRHPEAREWYHQWVYFRPRAYWHEWLNWPSIFANTGFFRPDEAHQPHFSDLFGQIINAGQGEGRYSELLAINLLEQLLLRRMEAINESLHPPMDNRVREACQYISDHLADSNFDIASVAQHVCLSPSRLSHLFRQQLGISVLSWREDQRISQAKLLLSTTRMPIATVGRNVGFDDQLYFSRVFKKCTGASPSEFRAGCEEKVNDVAVKLS [P0A9E0]	5.38 ± 0.2 h	1.95 h	1.21 ± 0.4 h	1.26 ± 0.079 h	0.763 ± 0.18 h	0.747 ± 0.18 h	1.42 ± 0.059 h	1.81 ± 0.044 h	1.08 ± 0.057 h	1.34 ± 0.25 h		1.12 h
